Measurements reported in the supplement of paper PMC7125110.
± gives the standard error. This sample holds only a part of the variants without activity.

B1: glmS ribozyme (parent)
chain: AUAAAAGCGCCAGAACUACAGAAAUGUAGUUGACGAGGAGGAGGUUUAUCGAAUUUUCGGCGGAUGCCUCCAAA

Experiments:
Conditions in all cases: with glucosamine-6-phosphate
[1] = variants of: B1; experiment: self-cleavage kobs at 640 uM GlcN6P; higher = faster cleavage; RNA array
How it was run: (§1)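 Glucosamine-6-phosphate, from 40 μM to 10 mM in HEPES/KCl/Mg(OAc)2 buffer, was flowed over sequenced MiSeq chips carrying barcoded ribozyme variants transcribed in situ by E. coli RNA polymerase. A hybridised Cy3 probe tracked the variants at 37 °C as tiles were imaged over ~14 h. kobs, kcat and KM were obtained by fitting normalised per-tile medians to exponential decays and then applying weighted Michaelis–Menten fits across concentrations.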

[2] = variants of: B1; experiment: self-cleavage kobs at 2500 uM GlcN6P; higher = faster cleavage; RNA array
How it was run: as §1

[3] = variants of: B1; experiment: self-cleavage kobs at 10000 uM GlcN6P; higher = faster cleavage; RNA array
How it was run: as §1

| Variant | self-cleavage kobs at 640 uM GlcN6P [1] | self-cleavage kobs at 2500 uM GlcN6P [2] | self-cleavage kobs at 10000 uM GlcN6P [3] |
| --- | --- | --- | --- |
| U45G U56C | 0.000204 ± 4.5e-05 s⁻¹ | 0.000272 ± 7.1e-05 s⁻¹ | 0.000987 ± 0.00015 s⁻¹ |
| G35C G37U U56G | < 1e-05 s⁻¹ |  |  |
| C34U G43U G59A G62C C67A | < 1e-05 s⁻¹ | < 1e-05 s⁻¹ |  |
| C34G A53C A64C | < 1e-05 s⁻¹ |  |  |
| C34A A42C C70A | < 1e-05 s⁻¹ |  |  |
| G37A G41A A42C U46C | < 1e-05 s⁻¹ |  |  |
| U47A U54G C68G | 6.48e-05 ± 1.2e-05 s⁻¹ | 6.96e-05 ± 1.8e-05 s⁻¹ |  |
| A42U G51C G59U | < 1e-05 s⁻¹ |  |  |
| C34A G43A G51C U56G | < 1e-05 s⁻¹ |  |  |
| G35U U57G C71A | < 1e-05 s⁻¹ | < 1e-05 s⁻¹ |  |
| U45G A53G G62A | < 1e-05 s⁻¹ | < 1e-05 s⁻¹ |  |
| A39G G60A U69G | < 1e-05 s⁻¹ |  |  |
| A42C A64U U69G | 4.76e-05 ± 1.2e-05 s⁻¹ | 9.13e-05 ± 1.9e-05 s⁻¹ |  |
| G40U G43U G51C U65C | < 1e-05 s⁻¹ |  |  |
| A36U G44C C61U C71A | < 1e-05 s⁻¹ |  |  |
| G41U G44U U45C | < 1e-05 s⁻¹ | < 1e-05 s⁻¹ |  |
| U46A C50U U55C | < 1e-05 s⁻¹ |  |  |
| A39C G59C C68U | < 1e-05 s⁻¹ |  |  |
| A33U G40U A52U U57G | < 1e-05 s⁻¹ | < 1e-05 s⁻¹ |  |
| A33C U47G | 8.08e-05 ± 3e-05 s⁻¹ |  | 6.4e-05 ± 1.3e-05 s⁻¹ |
| G35A A36U G41A C58A | < 1e-05 s⁻¹ | < 1e-05 s⁻¹ |  |
| U45G C50U C70U | < 1e-05 s⁻¹ |  |  |
| G38U G43C A53U | < 1e-05 s⁻¹ | < 1e-05 s⁻¹ |  |

| Variant | self-cleavage kobs at 640 uM GlcN6P [1] | self-cleavage kobs at 2500 uM GlcN6P [2] | self-cleavage kobs at 10000 uM GlcN6P [3] |
| --- | --- | --- | --- |
| C34U G43C | < 1e-05 s⁻¹ |  |  |
| A33G G40C G41C G43A U49A | < 1e-05 s⁻¹ | < 1e-05 s⁻¹ |  |
| G37A G41A A48G | < 1e-05 s⁻¹ | < 1e-05 s⁻¹ |  |
| G44U U45G A53C | 0.000372 ± 0.00011 s⁻¹ |  |  |
| G43A G44A C68U | 0.000159 ± 6.2e-05 s⁻¹ |  |  |
| G35C C67G C71G | < 1e-05 s⁻¹ |  |  |
| A42U G51U A52C C70G | < 1e-05 s⁻¹ |  |  |
| A39C C58G C67G C71G | < 1e-05 s⁻¹ |  |  |
| G44U U46A A53U C70G | < 1e-05 s⁻¹ |  |  |
| U46G C50A C67G | 0.000631 ± 0.00012 s⁻¹ | 0.000506 ± 0.00017 s⁻¹ |  |
| G43U C67G C70A | < 1e-05 s⁻¹ |  |  |
| U45A U46C U47G C70U | 0.000175 ± 8.3e-05 s⁻¹ |  |  |
| A39C G60U G66U | < 1e-05 s⁻¹ | < 1e-05 s⁻¹ |  |
| G41U U47G C50G | < 1e-05 s⁻¹ |  |  |
| G40U U54C | 0.000738 ± 0.00016 s⁻¹ | 0.00431 ± 0.0006 s⁻¹ |  |
| U46G A53U G63C C67G | < 1e-05 s⁻¹ |  |  |
| A33G G40U C58A C67A | < 1e-05 s⁻¹ | < 1e-05 s⁻¹ |  |
| U45A U54A G60A G66C | < 1e-05 s⁻¹ |  |  |
| A42U C50G G62A C71U | < 1e-05 s⁻¹ | < 1e-05 s⁻¹ |  |
| G43U U47C G66U | < 1e-05 s⁻¹ |  |  |
| G40A A52C G59A C68U | < 1e-05 s⁻¹ |  |  |
| G38C U45C C70A | < 1e-05 s⁻¹ | < 1e-05 s⁻¹ |  |
| A36U U56A | < 1e-05 s⁻¹ |  | < 1e-05 s⁻¹ |

| Variant | self-cleavage kobs at 640 uM GlcN6P [1] | self-cleavage kobs at 2500 uM GlcN6P [2] | self-cleavage kobs at 10000 uM GlcN6P [3] |
| --- | --- | --- | --- |
| A33U G35U U54A | < 1e-05 s⁻¹ |  | < 1e-05 s⁻¹ |
| C34G G37C | < 1e-05 s⁻¹ |  | < 1e-05 s⁻¹ |
| G41A G51C G63A C67A | < 1e-05 s⁻¹ |  |  |
| G41U U45G U47A C71U | 5.62e-05 ± 2.2e-05 s⁻¹ |  |  |
| A33U A39U G41C G43A C70G | < 1e-05 s⁻¹ |  |  |
| A36U A39U U45C C58U | < 1e-05 s⁻¹ | < 1e-05 s⁻¹ |  |
| G44A C61A C71U | < 1e-05 s⁻¹ | < 1e-05 s⁻¹ |  |
| G44A U65C | < 1e-05 s⁻¹ |  |  |
| G38C G51U G59A G60A | < 1e-05 s⁻¹ |  |  |
| G40C U65C | 4.51e-05 ± 1.9e-05 s⁻¹ |  | 0.000172 ± 3.4e-05 s⁻¹ |
| G37A G63U A64C | < 1e-05 s⁻¹ |  | < 1e-05 s⁻¹ |
| G37A A53G A64G | 0.000552 ± 9.7e-05 s⁻¹ | 0.00103 ± 0.0003 s⁻¹ | 0.00293 ± 0.0007 s⁻¹ |
| G37A G41A C70U | 0.00119 ± 0.00026 s⁻¹ | 0.00206 ± 0.00053 s⁻¹ |  |
| U46G A53C C67U | 7.34e-05 ± 2.7e-05 s⁻¹ | 0.000252 ± 8.5e-05 s⁻¹ |  |
| A39U A53C U55C | 0.000547 ± 9.5e-05 s⁻¹ | 0.00232 ± 0.00029 s⁻¹ |  |
| A42U U46G A48C | < 1e-05 s⁻¹ |  |  |
| G35C G37U | < 1e-05 s⁻¹ |  |  |
| G37A G41C C50U U65G | < 1e-05 s⁻¹ | < 1e-05 s⁻¹ |  |
| G38A U57A G66U C70A | 6.22e-05 ± 2.6e-05 s⁻¹ | 6.05e-05 ± 2.3e-05 s⁻¹ |  |
| G40U G44A C50G C71G | < 1e-05 s⁻¹ | < 1e-05 s⁻¹ |  |
| G37U C58U U69A | 5.7e-05 ± 1.7e-05 s⁻¹ |  |  |
| U46G C50U A53C A64U | < 1e-05 s⁻¹ | < 1e-05 s⁻¹ |  |
